B1: human c-RAF peptide 49 (N241–T260) (peptide, UniProt P04049 241-260, looked up)
peptide: NTSSPSSEGSLSQRQRSTST
notes: c-RAF, human, 20mer of the peptide array, residues N241–T260; source: synthetic peptide, SPOT synthesis on cellulose membrane
B2: human c-RAF peptide 117 (M581–P600) (peptide, UniProt P04049 581-600, looked up)
peptide: MKRLVADCVKKVKEERPLFP
notes: c-RAF, human, 20mer of the peptide array, residues M581–P600; source: synthetic peptide, SPOT synthesis on cellulose membrane
B3: human c-RAF peptide 123 (H611–H630) (peptide, UniProt P04049 611-630, looked up)
peptide: HSLPKINRSASEPSLHRAAH
notes: c-RAF, human, 20mer of the peptide array, residues H611–H630; source: synthetic peptide, SPOT synthesis on cellulose membrane
B4: human c-RAF peptide 8 (F36–S55) (peptide, UniProt P04049 36-55, looked up)
peptide: FGYQRRASDDGKLTDPSKTS
notes: c-RAF, human, 20mer of the peptide array, residues F36–S55; source: synthetic peptide, SPOT synthesis on cellulose membrane

How the values were obtained:
[1] = system: PANC1 spheroids; assay: 3D-spheroid growth assay, PANC1; type: cell-based, human; settings: 3D floating PANC1 spheroids, 0.5 µM, treated day 0, 2, 4, 7, 9 over 10 days; vs vehicle [0.2% DMSO] and DRx-150 [10 µM]; n = 5
Method: PANC1 cells were seeded at 2 × 10^3 in wells of a round bottom Nunclon™ Sphera™ 96 well-plate with ultra-low attachment coating (Thermo; #174925), containing 200 μL DMEM (2% FBS, 2 mM L-glutamine, 100 U/I Pen-Strep). To encourage spheroid formation, PANC1 cells were centrifuged at 250 × g for 10 min at room temperature. PANC1 spheroids were then allowed to grow for 3 days at 37 °C, 5% CO2, humidified air. Spheroids were then treated with appropriate concentration of DRx-peptide/afatinib by first removing 100 μL of media from each well (careful not to disturb spheroid), followed by addition of 100 μL drug at 2× concentration. Cells were treated five times over a 10 day period (day 0, 2, 4, 7 and 9). Spheroids were imaged on day 0, 2, 4, 7 and 10 using a Nikon Eclipse TS2 microscope and spheroid area quantified using Image J software. Data represented as a fold-difference of relative day 0 spheroid measurement (i.e., day 0 normalised to 1).

[2] = target: T1, full-length human PDE8A1-MBP (human, UniProt O60658-1 1-829); assay: peptide or protein array; human c-RAF 20mer peptides SPOT-synthesised on cellulose membrane; far western approach: 0.1 μM PDE8A1-MBP overnight at 4 °C in 1x TBS, 5% glycerol, pH 7.4; detected with αMBP-HRP and ECL; MBP alone as negative control; signal normalised to the strongest binding peptide; settings: both partners purified
T1 construct: Phosphodiesterase 8A, isoform PDE8A1, human, full length; the tag was detected with an anti-MBP-HRP antibody (Abcam ab49923); also called human recombinant PDE8A1-MBP; source: recombinant
T1 sequence (O60658 whole entry, canonical isoform): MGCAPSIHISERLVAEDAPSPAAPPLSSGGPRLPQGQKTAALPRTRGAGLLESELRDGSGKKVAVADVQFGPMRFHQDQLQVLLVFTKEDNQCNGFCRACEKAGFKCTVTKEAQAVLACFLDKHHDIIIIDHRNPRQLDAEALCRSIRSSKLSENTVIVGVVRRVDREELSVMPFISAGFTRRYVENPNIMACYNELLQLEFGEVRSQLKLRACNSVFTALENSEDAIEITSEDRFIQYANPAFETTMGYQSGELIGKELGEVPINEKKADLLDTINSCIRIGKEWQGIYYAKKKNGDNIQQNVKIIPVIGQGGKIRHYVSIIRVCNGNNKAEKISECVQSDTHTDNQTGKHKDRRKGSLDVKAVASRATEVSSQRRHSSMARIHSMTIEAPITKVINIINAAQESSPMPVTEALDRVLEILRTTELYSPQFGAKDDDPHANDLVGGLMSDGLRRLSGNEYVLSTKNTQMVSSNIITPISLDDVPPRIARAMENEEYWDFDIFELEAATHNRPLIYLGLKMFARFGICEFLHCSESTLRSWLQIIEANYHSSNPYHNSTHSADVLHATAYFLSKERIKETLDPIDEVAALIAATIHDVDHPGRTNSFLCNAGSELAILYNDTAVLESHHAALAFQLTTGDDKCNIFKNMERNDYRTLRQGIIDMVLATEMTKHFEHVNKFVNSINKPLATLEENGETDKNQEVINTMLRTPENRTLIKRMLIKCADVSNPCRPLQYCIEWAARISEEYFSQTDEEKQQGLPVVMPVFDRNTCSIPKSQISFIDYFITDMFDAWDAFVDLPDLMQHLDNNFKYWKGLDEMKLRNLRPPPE

Row | Molecule | relative spheroid area (fold-difference vs. Day 0) [1] | binding result [2]
1 | CN(C)C/C=C/C(=O)Nc1cc2c(Nc3ccc(F)c(Cl)c3)ncnc2cc1O[C@H]1CCOC1 [afatinib, afatinib dimaleate] | significantly attenuated | –
2 | B1 | – | binds
3 | B2 | – | binds
4 | B3 | – | binds
5 | B4 | – | binds

— article PMC11026450 (Scientific Reports, 2024)
